The text below walks through data of paper PMC11864512.

This assay addresses Ikoma lyssavirus glycoprotein ectodomain (IKOV-G-ecto) (Ikoma lyssavirus (IKOV)). The assay is described as follows: crystal structure.

On to “Ikoma lyssavirus glycoprotein ectodomain (IKOV-G-ecto) (domain or fragment)”, for which the stoichiometry N stood at 3.

Broadly, the stoichiometry N is the number of molecules, sites or subunits per partner or assembly.
